# T1: hICOS-Fc (R&D Systems) (human, UniProt Q9Y6W8 21-141, limits assumed)
# T1 construct: Bought from R&D Systems; also called human ICOS; not shown: Fc part of a bought fusion protein; not described
# T1 sequence (looked up): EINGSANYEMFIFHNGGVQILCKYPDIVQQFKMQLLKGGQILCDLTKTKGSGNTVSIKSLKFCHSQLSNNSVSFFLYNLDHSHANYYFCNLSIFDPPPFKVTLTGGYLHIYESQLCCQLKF
# B1: hICOSL-Fc (R&D Systems), dimeric human ICOS-L ECD Fc fusion (Fc fusion, not shown: a dimerising Fc or GST; small tags and cut ends)
# chain: DTQEKEVRAMVGSDVELSCACPEGSRFDLNDVYVYWQTSESKTVVTYHIPQNSSLENVDSRYRNRALMSPAGMLRGDFSLRLFNVTPQDEQKFHCLVLSQSLGFQEVLSVEVTLHVAANFSVPVVSAPHSPSQDELTFTCTSINGYPRPNVYWINKTDNSLLDQALQNDTVFLNMRGLYDVVSVLRIARTPSVNIGCCIENVLLQQNLTVGSQTGNDIGERDKITENPVSTGEKNAATWS
# modifications: Fc-mediated dimer (two copies); the Fc is left out.
# B2: human ICOS-L.COMP pentamer (human ICOS-L extracellular domain fused to the COMP pentamerization domain, C-terminal histidine tag) (ligand)
# chain: DTQEKEVRAMVGSDVELSCACPEGSRFDLNDVYVYWQTSESKTVVTYHIPQNSSLENVDSRYRNRALMSPAGMLRGDFSLRLFNVTPQDEQKFHCLVLSQSLGFQEVLSVEVTLHVAANFSVPVVSAPHSPSQDELTFTCTSINGYPRPNVYWINKTDNSLLDQALQNDTVFLNMRGLYDVVSVLRIARTPSVNIGCCIENVLLQQNLTVGSQTGNDIGERDKITENPVSTGEKNAATWSDLGPQMLRELQETNAALQDVRELLRQQVREITFLKNTVMECDACG
# Assays:
# [1] = biological target: putative VISTA-receptor on murine T-cells (2.10 T-cell clone; primary CD4+ T-cells) (mouse); assay: cell-based or functional assay
# hICOS-Fc (R&D Systems) [2] = biological target: T1, hICOS-Fc (R&D Systems); assay: SPR single cycle kinetics (Biacore T200), hICOS-Fc immobilized on a CM5 chip, 1:1 model
# hICOS-Fc (R&D Systems) [3] = biological target: T1, hICOS-Fc (R&D Systems); assay: SPR single cycle kinetics (Biacore T200), hICOS-Fc immobilized on a CM5 chip
Molecule,anti-CD3-induced 2.10 cell proliferation (3H-thymidine) [1] [µg/mL],Kd (hICOS-Fc (R&D Systems) [2]) [nM],fold stronger KD than hICOSL-Fc (hICOS-Fc (R&D Systems) [3]) [fold]
VISTA-Fc (murine VISTA extracellular domain fused to the human IgG-1 Fc region; dimeric) (Fc fusion),> 30,,
"murine VISTA.COMP pentamer, histidine tagged (VISTA.COMP.his) (ligand)",1,,
B1,,2.9,
B2,,0.9,~3
